Read-outs that look alike come from different tables or passages of the source.

Holding throughout (experiment): two-hybrid
The target of test [1] is KpsC (E. coli K1 (strain EV36)) (UniProt P42217).
Test [2] deals with NeuS (E. coli K1 (strain EV36)).
Test [3] has as its target KpsC (E. coli K1 (strain EV36)) (UniProt P42217). The source holds these as a separate data set.
Test [4] deals with NeuS (E. coli K1 (strain EV36)). This is another data set of the same source.

For “KpsC (from UniProt P42217 1-675) (natural protein)”, the beta-galactosidase activity, early was 200 Miller units in test [1], 420 Miller units in test [2], 220 Miller units in test [3] and 560 Miller units in test [4]. Further, the beta-galactosidase activity, late in test [1] came out at 760 Miller units; in test [2], 5540 Miller units; in test [3], 540 Miller units; in test [4], 4700 Miller units.
With KpsE (natural protein), the figures for the beta-galactosidase activity, early in test [1], in test [2] and in test [3] were 230 Miller units, 140 Miller units and 65 Miller units, respectively. Further, the beta-galactosidase activity, late in test [1] was 1170 Miller units; in test [2], 1050 Miller units; in test [3], 120 Miller units.
NeuE (natural protein): the beta-galactosidase activity, early in test [2] was found to be 16 Miller units; in test [4], 17 Miller units.
For NeuS (enzyme), the results for the beta-galactosidase activity, early in test [1] and in test [3] were 15 Miller units and 18 Miller units, respectively.

(Values after publication PMC2408645.)
